The values below come from the supplement of paper PMC10126150.

± gives the standard deviation of the averaged measurements.
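Further: ATP exposure 15 min at 22 °C before imaging.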

This data set concerns ATP. Kind of data set: switch fluorescence ratio, 500 uM ATP over buffer (Cy3 cluster intensity, sum of 5 cycles each) (fold (ratio)); higher = stronger signal-on switching upon ATP binding; sequences stand for … in TCGTCGGCAGCGTCAGATGTGTATAAGAGACAGTTTTTTTTTTTTTTTTTTTTTTTTT…TC. As to conditions: aptamer strand: ATP DNA aptamer (quencher-CACCTGGGGGAGTATTGCGGAGGAAGG + anchor), 100 nM annealed; ATP concentration: 500 uM. In short, it runs like this: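 The quencher-labelled ATP aptamer, at 100 nM, was annealed to Cy3-labelled switching-strand clusters on a modified Illumina MiSeq flow-cell. The clusters were imaged in selection buffer, then after 15 min with 500 uM ATP at 22 °C, and this buffer/ATP cycle ran five times with NaOH stripping and re-annealing between runs. Per-cluster fluorescence ratios, summed target-cycle over summed buffer-cycle Cy3 intensity, were averaged per switch-domain sequence. Clusters outside 100-1000 RFU were excluded.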
Take GCGGCGGATC: the switch fluorescence ratio was determined as 0.987 ± 0.038.

In the case of CAATGGGCGA, the switch fluorescence ratio is 0.993 ± 0.011. With TTATGATACG the figure was 1.01 ± 0.017. As to TTGCGGTTGA, the switch fluorescence ratio was 1.0313 ± 0.00057. In the case of TAGTAGGCGC, the switch fluorescence ratio came out at 0.968 ± 0.035.

On to CTGGTGACTG, for which the switch fluorescence ratio worked out at 0.986 ± 0.096.

On to GAGCGTAGTA, for which the switch fluorescence ratio was determined as 1 ± 0.037. With GGGGACGGCA the figure was 1.01 ± 0.046; with GGCGCCTGGG, 0.9875 ± 0.0033; with CGGACATGGA, 1.011 ± 0.0084.

Consider ATCTAAATAA, for which the switch fluorescence ratio was 1.03 ± 0.019. With TTTTGGTGGT the figure was 1.01 ± 0.024; with CGTTTCATTT, 0.995 ± 0.027; with TGGTTGCTAA, 1.01 ± 0.02.

As for TTAGGGGGGG, the switch fluorescence ratio came to 1 ± 0.052.

Turning to GACGGAGGCT, the switch fluorescence ratio amounted to 1.04 ± 0.042. With TTAAAGTGAT, the switch fluorescence ratio was determined as 0.995 ± 0.036. Turning to GTGTGACTTC, the switch fluorescence ratio turned out to be 0.988 ± 0.018. Regarding CGTTAGCAGA, the switch fluorescence ratio was 1.19 ± 0.086. Regarding TTCGAGTGTC, the switch fluorescence ratio is 1.05 ± 0.034. With GGATTTTTAG the figure was 0.99134 ± 0.00052; with TGACAGTCAG, 0.968 ± 0.02; with GGTTTCGGTG, 1.008 ± 0.0098. Under ATTATAGCGG stands 0.9984 ± 0.0073; under GCGATTCCAG, 1.02 ± 0.0065; under GCGTATGTAT, 1.002 ± 0.0068. On to CTTAGGGGGC, for which the switch fluorescence ratio amounted to 1.01 ± 0.051.

With AAATTGCCTG, the switch fluorescence ratio was determined as 1.01 ± 0.047.

Regarding TTTAGCGGAT, the switch fluorescence ratio came out at 1.02 ± 0.019.

Take GGCCTTGTCG: the switch fluorescence ratio was found to be 1.06 ± 0.046. With TTGTGTTTTA the figure was 0.998 ± 0.02; with AGTTGAAACA, 1.02 ± 0.016; with AGGTGCGGGG, 1.01 ± 0.042.

For GGTTTTGCGG, the switch fluorescence ratio was found to be 0.997 ± 0.029. As for TGATTTCTTT, the switch fluorescence ratio was determined as 0.997 ± 0.0018. Under TGCGGTTGTT stands 0.999 ± 0.046. With AGATGAATTC the figure was 0.982 ± 0.036. Regarding TCCTAAATGT, the switch fluorescence ratio stood at 0.976 ± 0.048.

Regarding GGTTATTAAA, the switch fluorescence ratio worked out at 0.998 ± 0.01.

Take GGTGATGAGA: the switch fluorescence ratio stood at 0.991 ± 0.06. Under TCGATCTACT stands 1.06 ± 0.024; under GATCCTAAGC, 0.99 ± 0.014. Under AAGTTCATAT stands 0.965 ± 0.015; under AGGGGGCAAC, 1.04 ± 0.03. With GATGCGGGGC the figure was 1.06 ± 0.03; with AACTGAGGGA, 1.022 ± 0.0069. Turning to TTGTGGTGTG, the switch fluorescence ratio was determined as 0.984 ± 0.049. With TCTTAGAAC the figure was 1.009 ± 0.0062. As to GTAACGGAAC, the switch fluorescence ratio turned out to be 1.13 ± 0.018. With TCCCGGGTTT the figure was 1.1 ± 0.14. Under TGTGGGGCTT stands 1.01 ± 0.035; under CATGCGTTTT, 1.04 ± 0.043; under TGGGATAGTT, 1.024 ± 0.0069. With AGGCTTTTTC the figure was 0.999 ± 0.024.

Turning to TTTCATGTTT, the switch fluorescence ratio came out at 0.9683 ± 0.007.

Consider GCTGTGAGGT, for which the switch fluorescence ratio is 0.979 ± 0.0018. Under ACATGGGCGT stands 0.977 ± 0.036; under GCTATTTTTT, 0.987 ± 0.022. For ATGATCCCCG, the switch fluorescence ratio was 1.05 ± 0.025.

On to TTATATATTT, for which the switch fluorescence ratio was found to be 0.993 ± 0.015. With GCTTATGTTC the figure was 1.015 ± 0.0097; with ATTATTAGCT, 0.996 ± 0.012; with TATTGTGTTC, 0.9965 ± 0.0035.

Consider TGTTTGAAGC, for which the switch fluorescence ratio is 0.9679 ± 0.0096. With GGTCATATAG the figure was 1.032 ± 0.0012; with GATCTAGAGG, 0.994 ± 0.019. With ATTATCATGT the figure was 1 ± 0.074; with GGATGCAAGT, 0.998 ± 0.039; with ACAGGCGATC, 1.09 ± 0.018.

Consider GCGTGTATGA, for which the switch fluorescence ratio stood at 1.02 ± 0.033. Under TGTCGAGGGC stands 0.965 ± 0.021. Under TTTATAGGT stands 0.9713 ± 0.0062; under TGTTCTAGTA, 1.27 ± 0.45. Regarding GCCTTGTGCG, the switch fluorescence ratio amounted to 1.01 ± 0.018. With CAGCGCGTGC, the switch fluorescence ratio was found to be 1.01 ± 0.051. As for AATGAGTCG, the switch fluorescence ratio is 0.991 ± 0.028. With TGTAAATGTT the figure was 1.03 ± 0.04; with GATTTTACGT, 1.021 ± 0.0067; with TGCATGGGGT, 1.01 ± 0.022. Under TAGTCCGGGC stands 1 ± 0.076; under GGCTTAGCAT, 1.02 ± 0.037. For the sequence CAGAAAAAAG, the switch fluorescence ratio came to 1.01 ± 0.028. With AATTTGTTTT the figure was 1.02 ± 0.028; with ATGCGTTTTG, 1.01 ± 0.017. With GCTTCTAGGT the figure was 0.9976 ± 0.0043; with TATGAGGGGA, 1.02 ± 0.032. Under AACGATGAAG stands 1.01 ± 0.043; under TCCGTATTTT, 1.29 ± 0.41; under GATGGCTTGG, 0.987 ± 0.018.

As to TGGGAGTCGC, the switch fluorescence ratio came to 0.97 ± 0.027.

Take AGTCATCTGC: the switch fluorescence ratio is 1 ± 0.013. As for TTTGGGGGGC, the switch fluorescence ratio is 1.05 ± 0.12.

Turning to GGGGGACCGT, the switch fluorescence ratio was found to be 1.01 ± 0.024.

Regarding ACTTTAGGGA, the switch fluorescence ratio was 0.974 ± 0.019. With GGGCATGAAA the figure was 1.02 ± 0.021.

For GCATGTCAGT, the switch fluorescence ratio came out at 0.9762 ± 0.00048. Consider CCAGTGTCGG, for which the switch fluorescence ratio was 0.969 ± 0.04. Under AATATAGGTA stands 1.02 ± 0.011. Under GCGCTACAGT stands 1.021 ± 0.0069. With TGAGGATCCA the figure was 0.985 ± 0.013; with AGTACAGGCG, 1.024 ± 0.0097; with TATTCTGGGA, 0.9918 ± 0.0078. As for TATTTCTTTG, the switch fluorescence ratio came to 0.979 ± 0.055. For TTTGGTGAGG, the switch fluorescence ratio came out at 1.01 ± 0.02. As for CGGGGGCAGC, the switch fluorescence ratio stood at 1.01 ± 0.06.

On to AGACAAAGA, for which the switch fluorescence ratio was 0.967 ± 0.022.

AGGTTGGAGA: the switch fluorescence ratio stood at 0.992 ± 0.023. Under ATTCCTAGGT stands 1.33 ± 0.45; under TTATGCAGGT, 1.0341 ± 0.00034; under ACTACAGGCT, 1.026 ± 0.0035. Under TCCTGATTAT stands 0.989 ± 0.011. Under AACCGCTTGG stands 0.995 ± 0.056; under GCCCACTATT, 0.988 ± 0.01; under GGGGTGACTG, 1.05 ± 0.048. TTTGCTTCCG: the switch fluorescence ratio was found to be 1.1 ± 0.084. With CGGGTAGGGA the figure was 1.01 ± 0.022.

Consider TTTTTACAAT, for which the switch fluorescence ratio amounted to 1.01 ± 0.039. With GACGGGTTGG the figure was 0.992 ± 0.045; with GGGGACTTTC, 1.03 ± 0.017. Under TTTAGAGATT stands 1.01 ± 0.068.
